The values below come from publication PMC7615342.

Data set [1] is described as follows: Flow cytometry, surface versus total PD-1 staining. The following applies: glycan changed form; control: sgNT Tregs. On the technique in general: In flow cytometry, cells or beads pass a laser one at a time.
Data set [2] can be described thus: Flow cytometry, PD-1+ frequency and MFI, ex vivo Tregs. The following applies: glycan changed form; control: DMSO-treated Tregs.

B1: PD-1: sgSlc35c1 (protein)
parent chain: MWVRQVPWSFTWAVLQLSWQSGWLLEVPNGPWRSLTFYPAWLTVSEGANATFTCSLSNWSEDLMLNWNRLSPSNQTEKQAAFCNGLSQPVQDARFQIIQLPNRHDFHMNILDTRRNDSGIYLCGAISLHPKAKIEESPGAELVVTERILETSTRYPSPSPKPEGRFQGMVIGIMSALVGIPVLLLLAWALAVFCSTSMSEARGAGSKDDTLKEEPSAAPVPSVAYEELDFQGREKTPELPTACVHTEYATIVFTEGLGASAMGRRGSADGLQGPRPPRHEDGHCSWPL
For the protein B1, the localisation_or_trafficking result in data set [1] is reported as “decreases”.

B2: PD-1: 2FF 100 μM, 6 days (protein)
parent chain: MWVRQVPWSFTWAVLQLSWQSGWLLEVPNGPWRSLTFYPAWLTVSEGANATFTCSLSNWSEDLMLNWNRLSPSNQTEKQAAFCNGLSQPVQDARFQIIQLPNRHDFHMNILDTRRNDSGIYLCGAISLHPKAKIEESPGAELVVTERILETSTRYPSPSPKPEGRFQGMVIGIMSALVGIPVLLLLAWALAVFCSTSMSEARGAGSKDDTLKEEPSAAPVPSVAYEELDFQGREKTPELPTACVHTEYATIVFTEGLGASAMGRRGSADGLQGPRPPRHEDGHCSWPL
Take B2: the expression_or_secretion entry in data set [2] is “decreases”.
